In one data set the target is T1, bmCENP-T HFD WT (Bombyx mori, UniProt A0A8R2HRP3 894-1016).
T1 sequence: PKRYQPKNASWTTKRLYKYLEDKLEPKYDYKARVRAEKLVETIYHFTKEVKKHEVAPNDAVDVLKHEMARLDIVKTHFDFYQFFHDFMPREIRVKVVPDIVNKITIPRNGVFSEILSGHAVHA
The experiment in a line: EMSA; 100 mM NaCl; maximum complex at 5x molar excess of protein; EMSA: 100 mM NaCl, 4 °C 30 min, 300 ng DNA, 8% glycerol, 5% native PAGE, GelRed stain; protein stock in 10 mM HEPES pH 7.5, 500 mM NaCl; binding buffer and pH not stated. As to conditions: protein: recombinant; tags: GST tag cleaved with HRV 3C (vector-derived N-terminal residues may remain); blunt. For orientation: A gel shift assay detects complexes by their altered migration in electrophoresis.

The target of another data set is T2, bmCENP-T patch 1 mutant (Bombyx mori, UniProt A0A8R2HRP3 894-1016, K895A;R896A;K907A;R908S;K911A).
T2 sequence: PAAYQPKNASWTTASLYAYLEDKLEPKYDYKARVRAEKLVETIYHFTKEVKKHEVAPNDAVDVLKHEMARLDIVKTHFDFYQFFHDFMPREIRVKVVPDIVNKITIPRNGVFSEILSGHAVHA
The experiment in a line: EMSA; 100 mM NaCl; EMSA: 100 mM NaCl, 4 °C 30 min, 300 ng DNA, 8% glycerol, 5% native PAGE, GelRed stain; protein stock in 10 mM HEPES pH 7.5, 500 mM NaCl; binding buffer and pH not stated. As to conditions: protein: recombinant; tags: GST tag cleaved with HRV 3C; blunt.

The target in a further data set is T3, bmCENP-T patch 2 mutant (Bombyx mori, UniProt A0A8R2HRP3 894-1016, R928S;R963S).
T3 sequence: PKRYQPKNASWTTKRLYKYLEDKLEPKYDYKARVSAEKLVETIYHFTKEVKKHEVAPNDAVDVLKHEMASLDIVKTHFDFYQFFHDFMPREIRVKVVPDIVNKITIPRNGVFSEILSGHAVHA
The experiment in a line: EMSA; 100 mM NaCl; no effect of mutation; EMSA: 100 mM NaCl, 4 °C 30 min, 300 ng DNA, 8% glycerol, 5% native PAGE, GelRed stain; protein stock in 10 mM HEPES pH 7.5, 500 mM NaCl; binding buffer and pH not stated. The following applies: protein: recombinant; tags: GST tag cleaved with HRV 3C; blunt.

B1: 12 bp DNA (AA357/AA358) (dsDNA)
DNA 1: TAGACAGCTCTA
DNA 2: TAGAGCTGTCTA
For the molecule B1, the binding result in the data set with bmCENP-T HFD WT was “binds”; with bmCENP-T patch 1 mutant, “no binding”; with bmCENP-T patch 2 mutant it was “binds”.

For the origin of these results see publication PMC12678787, “Insects evolved a monomeric histone-fold domain in the CENP-T protein family”.
